Assay results published in the supplement of paper PMC10567573.

B1: TEKT4 (parent)
chain: YARYHQAFADRDQSERQRHESQQL
B2: TBX6 (parent)
chain: AFLELPHGSGGSGYPAAPPAVPFA

Variants of: B1
Test: protein stability index of a GFP-peptide fusion (GPS, HEK-293T) (PSI 1-6); higher = more stable
Settings: c terminus: a fixed tail appended
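Further: lentivirally expressed fusions sorted by FACS into six bins by GFP to DsRed ratio, PSI derived from sequencing read proportions per bin multiplied by bin number.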

Protein stability index: each site, then its substitutions
S21: V 2.16; W 1.69; Y 1.29
Q22: A 1.8; C 1.57; D 2.17; E 2.25; F 1.9; G 1.85; H 2.36; I 1.66; K 2.17; L 1.82; M 2.2; N 2.1; P 2.17; R 1.85; S 1.92; T 1.63; V 1.79; W 1.43; Y 1.65
Q23: A 1.84; C 2.11; D 2.37; E 1.97; F 1.44; G 2.01; H 2.34; I 1.66; K 3; L 2.63; M 1.94; N 1.91; P 1.92; R 2.65; S 2.41; T 1.85; V 1.68; W 1.7; Y 2.19
L24: A 1.88; C 1.67; D 2.14; E 2.24; F 2.37; G 2.37; H 2.42; I 2.03; K 1.73; M 2.21; N 2.23; P 1.64; Q 2.57; R 1.68; S 2.27; T 2.15; V 1.57; W 1.85; Y 2.12

Variants of: B2
Test: as above
Settings: c terminus: a fixed tail appended

Protein stability index: each site, then its substitutions
A1: C 1.41; D 2.83; E 3.11; F 1.89; G 2.84; H 3.13; I 2.67; K 3.26; L 2.07; M 1.61; N 2.83; P 2.94; Q 2.77; R 2.58; S 2.08; T 2.71; V 1.78; W 1.89; Y 2.21
F2: A 3.45; C 3.58; D 3.93; E 4.25; G 3.33; H 3.88; I 2.94; K 3.76; L 3.08; M 2.83; N 4.05; P 4.04; Q 3.65; R 3.22; S 3.63; T 3.49; V 3.2; W 2.11; Y 2.82
L3: A 3.14; C 2.7; D 3.96; E 3.66; F 2.68; G 3.43; H 3.19; I 2.28; K 3.45; M 2.41; N 3.57; P 4.08; Q 3.43; R 3.47; S 2.87; T 3.23; V 2.93; W 3.01; Y 2.08
E4: A 2.24; C 2.17; D 2.42; F 1.4; G 2.13; H 2.12; I 3.55; K 1.68; L 2.21; M 1.56; N 2.09; P 3.3; Q 1.93; R 1.76; S 2.19; T 2.03; V 1.9; Y 2.2
L5: A 2.79; C 2.51; D 2.81; E 2.83; F 2.29; G 3.25; H 2.9; I 2.43; K 2.59; M 2.69; N 2.74; P 3.17; Q 2.83; R 2.71; S 2.8; T 2.61; V 2.59; W 2.32; Y 2.39
P6: A 1.64; C 1.34; D 2.31; E 2.62; F 2.09; G 1.62; H 1.95; I 2.85; K 2.37; L 2.4; M 2.29; N 2.14; Q 2
